The record followed here is patent US20220155321A1 (published 2022).

The labels stand for the following.
T1: peptide on HLA-A*01:01 (human)
T1 peptide: ASSLPTTMNY

B1: Reference E (TCR, V domains shown)
Valpha: GQQVMQIPQYQHVQEGEDFTTYCNSSTTLSNIQWYKQRPGGHPVFLIQLVKSGEVKKQKRLTFQFGEAKKNSSLHITATQTTDVGTYFCAGQGNRDDKIIFGKGTRLHILP
Vbeta: DGGITQSPKYLFRKEGQNVTLSCEQNLNHDAMYWYRQDPGQGLRLIYYSQIVNDFQKGDIAEGYSVSREKKESFPLTVTSAQKNPTAFYLCASSLEWGPYEQYFGPGTRLTVT
B2: Reference H (TCR, V domains shown)
Valpha: GESVGLHLPTLSVQEGDNSIINCAYSNSASDYFIWYKQESGKGPQFIIDIRSNMDKRQGQRVTVLLNKTVKHLSLQIAATQPGDSAVYFCAENMGGAGKSTFGDGTTLTVKP
Vbeta: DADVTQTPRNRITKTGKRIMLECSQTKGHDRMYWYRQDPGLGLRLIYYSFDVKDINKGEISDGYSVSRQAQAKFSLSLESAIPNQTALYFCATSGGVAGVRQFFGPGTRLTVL
B3: Reference C (TCR, V domains shown)
Valpha: RKEVEQDPGPFNVPEGATVAFNCTYSNSASQSFFWYRQDCRKEPKLLMSVYSSGNEDGRFTAQLNRASQYISLLIRDSKLSDSATYLCVVPRMDSSYKLIFGSGTRLLVRP
Vbeta: KAGVTQTPRYLIKTRGQQVTLSCSPISGHRSVSWYQQTPGQGLQFLFEYFSETQRNKGNFPGRFSGRQFSNSRSEMNVSTLELGDSALYLCASSSTGARRSREQYFGPGTRLTVT
B4: Reference G (TCR, V domains shown)
Valpha: SQQGEEDPQALSIQEGENATMNCSYKTSINNLQWYRQNSGRGLVHLILIRSNEREKHSGRLRVTLDTSKKSSSLLITASRAADTASYFCATAVFNFGNEKLTFGTGTRLTIIP
Vbeta: B3 Vbeta with T96M, G97T, A98S, R99G, R100G, S101P, R102W
B5: Reference F (TCR, V domains shown)
Valpha: QKEVEQNSGPLSVPEGAIASLNCTYSDRGSQSFFWYRQYSGKSPELIMFIYSNGDKEDGRFTAQLNKASQYVSLLIRDSQPSDSATYLCAVKDNNARLMFGDGTQLVVKP
Vbeta: KAGVTQTPRYLIKTRGQQVTLSCSPISGHRSVSWYQQTPGQGLQFLFEYFSETQRNKGNFPGRFSGRQFSNSRSEMNVSTLELGDSALYLCASSLSSGLYEQYFGPGTRLTVT

Numbering of substitutions follows the chain as printed.

The assay concerns the target T1, peptide on HLA-A*01:01. The experiment in a line: multimer staining.
As for B1, the binding result is “recognises”.

For the molecule B2, the binding result is “recognises”. For B3 the value was “recognises”; for B4, “recognises”; for B5, “recognises”.
